Measurements published in paper PMC10561363.

Target: glutathione S-transferase (GST) fused to the C-terminus of SERT
Assay: GST pull-down, immunoblot densitometry
Settings: whole-cell lysates of transfected HEK-293 cells; n = 3; parent: est. 3.1; read off a plot

- response: 2.1 a.u.
Substance: YFP-tagged human MAD2, wild type (from UniProt Q13257) R133A
